Test results from PMC5951847, “Substrate sequence selectivity of APOBEC3A implicates intra-DNA interactions”.

Target: A3A(E72A) (Homo sapiens, UniProt P31941 1-199, E72A)
Assay: fluorescence anisotropy; pH 6.0; 50 mM MES pH 6.0, 100 mM NaCl, 0.5 mM TCEP, room temperature overnight, 10 nM TAMRA-oligo; competition with 300 nM A3A(E72A); pH series: acetate 4.0-5.0, MES 5.5-6.5, HEPES 7.0-8.0, Tris 8.5-9.0
Settings: protein: recombinant; tags: His6-SUMO removed by Ulp1 (untagged); label: 5' TAMRA; hairpin

Sequence of A3A(E72A) (P31941 whole entry E72A): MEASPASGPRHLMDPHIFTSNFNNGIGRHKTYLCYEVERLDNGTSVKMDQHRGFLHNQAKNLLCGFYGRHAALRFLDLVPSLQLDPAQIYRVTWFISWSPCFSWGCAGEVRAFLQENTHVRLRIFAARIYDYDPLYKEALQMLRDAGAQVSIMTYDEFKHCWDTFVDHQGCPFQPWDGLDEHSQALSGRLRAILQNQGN

GCCATCATTCGATGGG (structured_DNA) [Hairpin-TTC]
Kd: 26 ± 2 nM
